Target: the molecule itself
Assay: SEC; analytical SEC, Agilent Bio SEC-3 HPLC column, TNT buffer (25 mM Tris pH 8.0, 150 mM NaCl, 1 mM TCEP), 25 °C; proteins diluted to a range of concentrations (given in Figure 3a) and incubated at least 1 h at room temperature; dimer against monomer

| Protein | stoichiometry N |
| --- | --- |
| wild-type FICD, structured luminal region (residues 104-445) (enzyme, human, UniProt Q9BVA6 104-445, looked up, human FICD (Fic domain-containing protein), structured luminal region, residues 104-445; purification as in Perera et al., 2019 and 2021; also called FICD^WT; WT; source: E. coli T7 Express lysY/Iq (NEB), purified (Ni-NTA, Ulp1 cleavage, anion exchange, gel filtration); not shown: His6, N-terminal, cleaved; SUMO, N-terminal, cleaved) LEARAALNQALEMKRQGKREKAQKLFMHALKMDPDFVDALTEFGIFSEEDKDIIQADYLYTRALTISPYHEKALVNRDRTLPLVEEIDQRYFSIIDSKVKKVMSIPKGNSALRRVMEETYYHHIYHTVAIEGNTLTLSEIRHILETRYAVPGKSLEEQNEVIGMHAAMKYINTTLVSRIGSVTISDVLEIHRRVLGYVDPVEAGRFRTTQVLVGHHIPPHPQDVEKQMQEFVQWLNSEEAMNLHPVEFAALAHYKLVYIHPFIDGNGRTSRLLMNLILMQAGYPPITIRKEQRSDYYHVLEAANEGDVRPFIRFIAKCTETTLDTLLFATTEYSVALPEAQP | 2 |
| FICD^R371S, structured luminal region (residues 104-445) (enzyme, human, UniProt Q9BVA6 104-445, looked up, human FICD, structured luminal region, residues 104-445, with the patient variant p.(Arg371Ser) (NM_007076.2:c.1113G>C); Rare human variant found in patients; also called Arg371Ser mutant FICD; p.(Arg371Ser); source: E. coli T7 Express lysY/Iq (NEB), purified (Ni-NTA, Ulp1 cleavage, anion exchange, gel filtration); not shown: His6, N-terminal, cleaved; SUMO, N-terminal, cleaved) LEARAALNQALEMKRQGKREKAQKLFMHALKMDPDFVDALTEFGIFSEEDKDIIQADYLYTRALTISPYHEKALVNRDRTLPLVEEIDQRYFSIIDSKVKKVMSIPKGNSALRRVMEETYYHHIYHTVAIEGNTLTLSEIRHILETRYAVPGKSLEEQNEVIGMHAAMKYINTTLVSRIGSVTISDVLEIHRRVLGYVDPVEAGRFRTTQVLVGHHIPPHPQDVEKQMQEFVQWLNSEEAMNLHPVEFAALAHYKLVYIHPFIDGNGSTSRLLMNLILMQAGYPPITIRKEQRSDYYHVLEAANEGDVRPFIRFIAKCTETTLDTLLFATTEYSVALPEAQP | 2 |

Reference: article doi:10.1101/2022.05.14.22275020, “A homozygous p.(Arg371Ser) mutation in FICD de-regulates AMPylation of the human endoplasmic reticulum chaperone BiP causing infancy-onset diabetes and severe neurodevelopmental delay” (medRxiv, 2022)
